How the values were obtained:
[1] = molecular target: Arp2/3 complex (bovine (purified from bovine brain)) (UniProt P61157)
[2] = molecular target: Arp2/3 complex (bovine (purified from bovine brain)) (UniProt P61157); remark: listed apart in the source

| Substance | increase of the detachment rate of SPIN90-Arp2/3-nucleated filaments, 0-1 µM VCA [1] [fold] | acceleration of debranching of Arp2/3-mediated branches, 0-3 µM VCA [2] [fold] |
| --- | --- | --- |
| GST-N-WASP-VCA (from UniProt O00401 392-505) (domain or fragment) | < 16 |  |
| GST-WASH-VCA (from UniProt Q8VDD8 319-475) (domain or fragment) |  | < 83 |
